Assay results published in patent US8241627B2, “Modified polypeptides stabilized in a desired conformation and methods for producing same” (The Center for Blood Research, Inc., priority 2000, dated 2012).
Blank lines part the entries; values can stand above or below the compound they belong to.

Experiments:
Format in all cases: cell-based
[1] = target: T1, LFA-1 mutant K287C/K294C (Homo sapiens, UniProt P20701, K312C/K319C); assay: Inhibition of binding of mutant K287C/K294C LFA-1 transfectants to immobilized ICAM-1; conditions: lovastatin 0-50 μM
T1 construct: expressed in transfected cells
Method: (§1) Briefly, ICAM-1 was purified from human tonsil, and coated to 96-well plates as described previously (Lu, C and Springer T A, (1997) J Immunol 159:268-278). Cells were labeled with a florescence dye 2′,7′-bis-(carboxyethyl)-5(and-6)-carboxyfluorescein, acetoxymethyl ester (BCECF-AM), and resuspended to 1×10^6/ml in L15/FBS. 50 μl cell suspension was mixed in ICAM-1 coated wells with an equal volume of L15/FBS in the absence or presence of monoclonal antibody (CBRLFA-1/2, 10 μg/ml). Monoclonal antibodies were used at final concentration of 1:20 hybridoma supernatant, 1:200 ascites, or μg/ml purified IgG. For testing the effect of divalent cations, BCECF-AM-labeled cells were washed 2× with TS buffer, pH7.5 (20 mM Tris, pH 7.5, 150 mMNaCl) containing 5 mM EDTA, followed by 2 washes with TS buffer, pH7.5. […] The fluorescence content of total input cells and the bound cells in each well was quantitated on a Fluorescent Concentration Analyzer (IDEXX, Westbrook, Me.). The bound cells were expressed as a percentage of total input cells per sample well. […]
(§2) The high affinity open I-domains of the invention can be used to discriminate between direct/competitive and indirect/non-competitive modes of inhibition of LFA-1. […] Accordingly, the ability of lovastatin to inhibit ligand binding of the high-affinity I-domain (K287C/K294C) was assessed. […]

[2] = target: T2, wild-type LFA-1 (Homo sapiens, UniProt P20701); assay: Inhibition of binding of wild-type LFA-1 transfectants to immobilized ICAM-1; conditions: lovastatin 0-50 μM; cells stimulated with Mn2+ or antibody CBRLFA1/2
T2 construct: expressed in transfected cells
Method: as §1, §2

[3] = target: T3, ICAM-1 (Homo sapiens, UniProt P05362); assay: Binding of LFA-1 or isolated I-domain transfectants to immobilized ICAM-1; conditions: for binding of 293T transient transfectants to immobilized ICAM-1: no activating antibody
T3 construct: ICAM-1 was purified from human tonsil; from tissue; host or cells: human tonsil
Method: Clones of the transfectants that expressed similar levels of cell surface LFA-1, as determined by flow cytometry using monoclonal antibody TS2/4 (FIG. 3B), were tested for their ability to bind to immobilized ICAM-1, as previously described (Lu, C and Springer, T A (1997) J Immunol 159:268-278).
Briefly, ICAM-1 was purified from human tonsil, and coated to 96-well plates as described previously (Lu, C and Springer T A, (1997) J Immunol 159:268-278). Cells were labeled with a florescence dye 2′,7′-bis-(carboxyethyl)-5(and-6)-carboxyfluorescein, acetoxymethyl ester (BCECF-AM), and resuspended to 1×10^6/ml in L15/FBS. 50 μl cell suspension was mixed in ICAM-1 coated wells with an equal volume of L15/FBS in the absence or presence of monoclonal antibody (CBRLFA-1/2, 10 μg/ml). Monoclonal antibodies were used at final concentration of 1:20 hybridoma supernatant, 1:200 ascites, or μg/ml purified IgG. For testing the effect of divalent cations, BCECF-AM-labeled cells were washed 2× with TS buffer, pH7.5 (20 mM Tris, pH 7.5, 150 mMNaCl) containing 5 mM EDTA, followed by 2 washes with TS buffer, pH7.5. Cells were then resuspended to 5×10^5/ml in the TS buffer, pH7.5 supplemented with 1 mM MgCl2/CaCl2, MgCl2, MnCl2 mM EDTA, and 100 μl cell suspension was added to ICAM-1 coated wells. After incubation at 37° C. for 30 minutes, unbound cells were washed off on a Microplate Autowasher (Bio-Tek Instruments, Winooski, Vt.). The fluorescence content of total input cells and the bound cells in each well was quantitated on a Fluorescent Concentration Analyzer (IDEXX, Westbrook, Me.). The bound cells were expressed as a percentage of total input cells per sample well.
For generating stable K562 transfectants that express the I-domain on the surface, 20 μg of SspI-linearized pcDNA3.1/Hygro(+) containing the sequences encoding the I domain and the PDGFR transmembrane domain was used to transfect K562 cells by electroporation as described above. Transfectants were selected for resistance to 100 μg/ml hygromycin B, and were further subcloned by cell sorting and limiting dilution; clones that expressed similar levels of surface wild-type and mutant I domain-PDGFR were selected for functional studies. Stable cell lines were maintained in RPMI medium 1640 supplemented with 10% FBS and 100 μg/ml hygromycin B. Cell surface expression of the isolated I-domains was determined by flow cytometry using antibody TS1/22 to the I-domain (FIG. 7). Two clones from each transfectant were selected and tested for binding to immobilized ICAM-1, and similar results were obtained with each of the two clones (FIG. 8A).
If the constitutive ligand binding activity of mutant K287C/K294C is due to the formation of a disulfide bond between the introduced C287 and C294, disruption of the disulfide bond with a reducing agent would abolish ligand binding ability of the mutant. Accordingly, the transfectants were treated with the reducing agent DTT (10 mM) in L15/FBS containing Mg^2+ and Ca^2+, and the ability of transfectants to bind to ICAM-1 was assessed.
Furthermore, the effect of divalent cations on ligand binding of the isolated I-domains expressed on the surface of K562 transfectants was tested. The binding reactions were performed in HEPES/NaCl/glucose (20 mM HEPES, pH 7.5, 140 mM NaCl, 2 mg/ml glucose) supplemented with 1 mM […], 1 mM Mg^2+, or 1 mM EDTA.

[4] = target: T4, iC3b (Homo sapiens, UniProt P01024); assay: Adhesion of αMβ2 (Mac-1) or αM I-domain transfectants to immobilized iC3b
T4 construct: mutant to iC3b coated on plastic
From the text: In order to assess the effect of the introduction of pairs of potentially disulfide bond-forming cysteines into the I-domain of αMβ2 on CBRM 1/5 activation-dependent epitope expression and ligand binding, plasmids encoding the wild-type or mutant αM subunits and the β2 subunit were co-transfected into 293T and K562 cells. α.β heterodimer formation was confirmed using monoclonal antibody CBRM1/32 which recognizes an epitope in the putative β-propeller domain of the αM subunit only after association with the β2 subunit, and antibody CBRM1/5 was used to detect integrin activation.
Alternatively, isolated Mac-1 mutant I-domains were expressed on the cell surface in conjunction with an artificial signal sequence and transmembrane domain of the PDGF receptor. Adhesion was assayed in L15/FBS/MnCl2 at 37° C.
In a further study, the open I-domain mutants Q 163C/Q309C and D294C/Q311C were stably expressed in K562 cells, and clones expressing the same levels of receptors were selected. Adhesion assays to immobilized iC3b were performed with L15/FBS at 37° C.
Binding of αMβ2 transfectants containing mutant I-domains to immobilized iC3b on plastic was tested in the presence and absence of DTT.

T3 sequence (P05362 28-532): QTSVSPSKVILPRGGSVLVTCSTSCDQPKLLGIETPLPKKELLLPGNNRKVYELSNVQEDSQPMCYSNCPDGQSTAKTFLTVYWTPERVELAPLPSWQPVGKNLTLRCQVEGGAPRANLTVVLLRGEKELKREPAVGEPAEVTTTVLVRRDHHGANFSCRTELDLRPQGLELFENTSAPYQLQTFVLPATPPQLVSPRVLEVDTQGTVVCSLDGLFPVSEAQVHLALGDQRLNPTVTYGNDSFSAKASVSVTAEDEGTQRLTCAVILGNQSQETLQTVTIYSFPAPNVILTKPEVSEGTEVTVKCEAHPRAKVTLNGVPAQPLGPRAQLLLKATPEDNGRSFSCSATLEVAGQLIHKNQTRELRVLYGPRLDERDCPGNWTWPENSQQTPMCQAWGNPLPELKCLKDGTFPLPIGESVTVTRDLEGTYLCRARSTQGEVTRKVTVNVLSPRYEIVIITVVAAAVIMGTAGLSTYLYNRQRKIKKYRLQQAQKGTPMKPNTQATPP
T4 sequence (P01024 23-667 limits assumed): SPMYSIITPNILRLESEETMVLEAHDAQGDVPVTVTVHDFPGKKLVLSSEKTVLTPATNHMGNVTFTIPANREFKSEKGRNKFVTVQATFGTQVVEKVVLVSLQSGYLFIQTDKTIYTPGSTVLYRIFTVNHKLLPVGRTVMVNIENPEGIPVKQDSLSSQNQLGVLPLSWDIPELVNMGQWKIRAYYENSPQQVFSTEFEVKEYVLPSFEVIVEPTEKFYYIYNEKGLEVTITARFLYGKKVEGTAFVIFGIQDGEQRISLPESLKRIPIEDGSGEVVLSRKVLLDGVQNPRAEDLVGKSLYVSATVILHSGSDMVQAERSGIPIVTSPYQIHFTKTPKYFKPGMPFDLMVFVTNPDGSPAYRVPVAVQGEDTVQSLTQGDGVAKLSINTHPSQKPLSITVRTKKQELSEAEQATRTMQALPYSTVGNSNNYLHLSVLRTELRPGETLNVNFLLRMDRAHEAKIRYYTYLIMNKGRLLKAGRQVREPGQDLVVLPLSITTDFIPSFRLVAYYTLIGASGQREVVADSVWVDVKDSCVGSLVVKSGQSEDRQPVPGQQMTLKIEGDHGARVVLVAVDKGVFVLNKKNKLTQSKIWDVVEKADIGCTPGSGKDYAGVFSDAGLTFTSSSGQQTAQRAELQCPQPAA
T4 sequence (P01024 749-1303 limits assumed): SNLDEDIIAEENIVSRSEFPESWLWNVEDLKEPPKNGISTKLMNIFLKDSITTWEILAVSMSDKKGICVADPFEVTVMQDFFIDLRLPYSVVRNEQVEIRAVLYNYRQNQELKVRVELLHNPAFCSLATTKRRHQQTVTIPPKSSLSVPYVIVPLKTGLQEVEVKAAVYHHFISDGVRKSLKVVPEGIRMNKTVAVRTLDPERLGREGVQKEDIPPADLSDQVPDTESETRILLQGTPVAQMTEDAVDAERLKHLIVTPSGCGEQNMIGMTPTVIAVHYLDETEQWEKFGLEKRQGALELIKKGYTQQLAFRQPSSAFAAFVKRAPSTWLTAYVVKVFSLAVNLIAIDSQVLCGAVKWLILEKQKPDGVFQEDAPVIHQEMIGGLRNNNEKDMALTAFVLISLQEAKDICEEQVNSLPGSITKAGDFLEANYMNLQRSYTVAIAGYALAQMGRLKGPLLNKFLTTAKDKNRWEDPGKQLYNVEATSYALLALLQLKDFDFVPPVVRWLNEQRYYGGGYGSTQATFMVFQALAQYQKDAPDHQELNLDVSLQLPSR
T4 sequence (P01024 1321-1663 limits assumed): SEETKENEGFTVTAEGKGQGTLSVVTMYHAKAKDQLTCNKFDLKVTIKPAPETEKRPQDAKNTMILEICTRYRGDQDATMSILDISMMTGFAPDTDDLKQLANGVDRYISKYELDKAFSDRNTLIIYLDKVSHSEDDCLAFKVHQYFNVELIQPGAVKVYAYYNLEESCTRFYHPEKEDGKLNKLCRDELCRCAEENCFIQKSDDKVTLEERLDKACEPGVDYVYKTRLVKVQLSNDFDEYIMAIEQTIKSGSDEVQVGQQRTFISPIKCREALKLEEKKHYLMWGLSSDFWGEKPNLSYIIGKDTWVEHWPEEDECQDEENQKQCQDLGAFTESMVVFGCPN
T1 sequence (P20701 26-1170 K312C/K319C): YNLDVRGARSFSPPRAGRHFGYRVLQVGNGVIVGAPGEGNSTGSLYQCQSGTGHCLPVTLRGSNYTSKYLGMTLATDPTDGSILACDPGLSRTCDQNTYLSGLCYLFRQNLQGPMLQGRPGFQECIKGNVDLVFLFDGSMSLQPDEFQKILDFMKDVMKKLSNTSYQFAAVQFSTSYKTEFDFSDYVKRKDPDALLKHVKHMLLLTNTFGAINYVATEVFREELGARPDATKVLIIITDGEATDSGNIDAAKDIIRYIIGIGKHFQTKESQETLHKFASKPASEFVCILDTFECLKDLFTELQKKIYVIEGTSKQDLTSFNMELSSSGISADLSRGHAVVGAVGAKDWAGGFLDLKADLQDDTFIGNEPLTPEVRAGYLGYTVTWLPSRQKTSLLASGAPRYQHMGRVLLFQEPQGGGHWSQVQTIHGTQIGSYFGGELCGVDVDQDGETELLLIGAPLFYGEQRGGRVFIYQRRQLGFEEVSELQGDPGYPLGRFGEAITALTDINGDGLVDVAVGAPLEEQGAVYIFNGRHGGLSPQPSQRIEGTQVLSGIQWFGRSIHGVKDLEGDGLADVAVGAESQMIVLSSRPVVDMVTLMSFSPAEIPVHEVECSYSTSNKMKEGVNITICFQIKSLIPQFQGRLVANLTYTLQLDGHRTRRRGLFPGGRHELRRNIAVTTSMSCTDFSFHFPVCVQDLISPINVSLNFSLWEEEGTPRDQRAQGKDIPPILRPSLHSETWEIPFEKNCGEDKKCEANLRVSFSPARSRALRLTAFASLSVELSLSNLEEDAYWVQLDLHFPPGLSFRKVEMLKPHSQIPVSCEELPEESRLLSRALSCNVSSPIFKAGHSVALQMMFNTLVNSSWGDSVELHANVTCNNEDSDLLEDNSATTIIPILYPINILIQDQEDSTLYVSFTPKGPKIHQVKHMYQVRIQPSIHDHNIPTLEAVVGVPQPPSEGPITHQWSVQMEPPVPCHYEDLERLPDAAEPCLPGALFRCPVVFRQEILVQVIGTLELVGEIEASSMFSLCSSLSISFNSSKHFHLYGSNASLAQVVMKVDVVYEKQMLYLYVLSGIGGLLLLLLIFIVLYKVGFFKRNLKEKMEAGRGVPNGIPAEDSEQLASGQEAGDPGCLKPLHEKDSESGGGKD
T1 sequence (P05107 23-769 partner): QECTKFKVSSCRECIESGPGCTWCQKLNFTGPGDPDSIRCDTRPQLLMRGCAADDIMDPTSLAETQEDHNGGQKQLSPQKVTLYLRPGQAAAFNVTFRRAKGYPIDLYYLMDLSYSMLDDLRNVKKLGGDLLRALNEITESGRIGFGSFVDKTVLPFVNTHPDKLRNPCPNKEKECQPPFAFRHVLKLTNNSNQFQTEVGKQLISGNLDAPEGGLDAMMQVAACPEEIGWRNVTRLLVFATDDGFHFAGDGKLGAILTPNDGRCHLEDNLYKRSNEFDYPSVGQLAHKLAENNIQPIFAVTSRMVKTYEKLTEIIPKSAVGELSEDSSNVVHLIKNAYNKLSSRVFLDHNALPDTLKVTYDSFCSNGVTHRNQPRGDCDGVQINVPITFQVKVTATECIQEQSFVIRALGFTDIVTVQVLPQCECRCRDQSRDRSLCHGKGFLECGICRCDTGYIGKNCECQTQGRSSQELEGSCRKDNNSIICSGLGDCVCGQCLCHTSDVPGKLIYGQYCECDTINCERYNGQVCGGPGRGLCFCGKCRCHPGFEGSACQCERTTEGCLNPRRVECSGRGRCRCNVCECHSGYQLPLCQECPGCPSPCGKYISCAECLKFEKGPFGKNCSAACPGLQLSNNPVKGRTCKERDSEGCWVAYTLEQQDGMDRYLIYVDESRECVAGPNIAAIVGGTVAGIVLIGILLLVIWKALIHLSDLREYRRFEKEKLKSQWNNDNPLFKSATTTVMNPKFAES
T2 sequence (P20701 26-1170): as the sequence (P20701 26-1170 K312C/K319C) above, with C287K, C294K counted along it
T2 sequence (P05107 23-769 partner): as the sequence (P05107 23-769 partner) above

- interference with ligand binding by the high affinity open K287C/K294C mutant [1]: does not interfere
- inhibition of ICAM-1 binding by cells expressing wild-type LFA-1 [2]: inhibits
Compound: CC[C@H](C)C(=O)O[C@H]1C[C@@H](C)C=C2C=C[C@H](C)[C@H](CC[C@@H]3C[C@@H](O)CC(=O)O3)[C@H]21 [lovastatin]

- effect of DTT on binding of intact αMβ2 ([4]; DTT): increased binding
- adhesion of αMβ2 transfectant to iC3b, +DTT −activation ([4]; DTT treatment, no activating mAb): ++ (++25-50%)
- ligand binding (iC3b) of intact αMβ2 heterodimer in K562 stable transfectants ([4]; K562, L15/FBS at 37° C.): little basal activity
- adhesion of αMβ2 transfectant to iC3b, −DTT −activation ([4]; no DTT, no activating mAb): ± (+−.: 0-5%)
Compound: Wild type: wild-type αMβ2 (Mac-1) transfectant
- adhesion of αMβ2 transfectant to iC3b, +DTT +activation ([4]; DTT treatment, activated by mAb CBR LFA-1/2): ++++ (++++: 75-100% of binding by activated wild type transfectant)
- adhesion of αMβ2 transfectant to iC3b, −DTT +activation ([4]; no DTT, activated by mAb CBR LFA-1/2): ++++ (++++: 75-100% of binding by activated wild type transfectant)

More lines, now with the values behind:

Compound: L289C: single cysteine substitution mutant of LFA-1 αL
- binding of 293T transient transfectants to immobilized ICAM-1 with activating mAb CBRLFA-1/2 ([3]; 293T, CBRLFA-1/2 10 μg/ml): increased
- binding of 293T transient transfectants to immobilized ICAM-1 ([3]; 293T): reduced binding

Compound: K294C: single cysteine substitution mutant of LFA-1 αL
- binding of 293T transient transfectants to immobilized ICAM-1 ([3]; 293T): comparable to that of the wild-type

Compound: wild-type LFA-1: wild-type human αL/β2 (LFA-1) expressed on 293T or K562 transfectants [reference compound]
- binding of 293T transient transfectants to immobilized ICAM-1 ([3]; 293T): constitutively strong binding
- binding of K562 stable transfectants to immobilized ICAM-1 with activating mAb CBRLFA-1/2 ([3]; K562, CBRLFA-1/2 10 μg/ml): greatly increased
- effect of Mn2+ and Mg2+ on binding of K562 transfectants to ICAM-1 ([3]; K562, intact LFA-1, Mn2+ / Mg2+): greatly enhanced
- binding of K562 stable transfectants to immobilized ICAM-1 ([3]; K562, no activating antibody): low basal binding
- effect of DTT treatment on binding to ICAM-1 ([3]; K562 transfectants, DTT 10 mM in L15/FBS): increased binding
